For test [1], the target named is T1, human NKp46 expressed on cells (human, UniProt O76036 22-304). Description: cell-based or functional assay.
Test [2] addresses T1, human NKp46 expressed on cells. Description: flow cytometry on Raji-hNKp46 cells, dose range, anti-human IgG1-PE detection. The protocol: Flow cytometry: Cells were harvested and stained in PBS 1×/BSA 0.2%/EDTA 2 mM buffer during 30 minutes at 4° C. using a dose-range of the anti-NKp46 mAbs. After two washes in staining buffer, cells incubated with anti-NKp46 antibodies were stained for 30 min at 4° C. with mouse anti-human IgG1-PE monoclonal antibodies from Miltenyi (dil. 1/10). After two washes, the stainings were acquired on the HTFC Intellicyt device and analyzed using the ForeCyt software.
A general note: A flow cytometer gives signals particle by particle.

In test [3] the target is T2, Macaca fascicularis NKp46 expressed on CHO cells (Macaca fascicularis, UniProt Q95JB9 22-306).
T2 construct: Cloned from Macaca fascicularis cDNA and transfected into the CHO cell line; also called cyno NKp46; CHO-cynoNKp46
T2 sequence (Q95JB9 22-306 limits assumed): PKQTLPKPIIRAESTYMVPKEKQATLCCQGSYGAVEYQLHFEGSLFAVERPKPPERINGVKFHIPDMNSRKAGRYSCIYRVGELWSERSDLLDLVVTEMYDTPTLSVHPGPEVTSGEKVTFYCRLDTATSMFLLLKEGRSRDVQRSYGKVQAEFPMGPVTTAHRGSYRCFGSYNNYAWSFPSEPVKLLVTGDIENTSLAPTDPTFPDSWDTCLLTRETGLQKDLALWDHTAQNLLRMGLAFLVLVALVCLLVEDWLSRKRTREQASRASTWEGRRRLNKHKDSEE
Put plainly: flow cytometry on CHO cells transfected with cyno NKp46, dose range, anti-human IgG1-PE detection. As to the method:
The antibodies (including 8B6A, 8B6B, 9H11A, 9H11B and 17E1) were assessed for binding to Macaca fascicularis NKp46 (cyno NKp46) protein. The sequence of cyno NKp46 (shown below) was cloned from Macaca fascicularis cDNA and transfected into the CHO cell line. The binding of CHG1-M-H46 to CHO-cynoNKp46 was analyzed by flow cytometry.
Flow cytometry: CHO cells were harvested and stained in PBS 1×/BSA 0.2%/EDTA 2 mM buffer during 30 minutes at 4° C. using a dose-range of the anti-NKp46 mAbs. After two washes in staining buffer, cells incubated with anti-NKp46 antibodies were stained for 30 min at 4° C. with mouse anti-human IgG1-PE monoclonal antibodies from Miltenyi (dil 1/10). After two washes, stainings were acquired on a HTFC Intellicyt and analyzed using ForeCyt software.

The target in test [4] is T3, Human 6xHis tagged NKp46 recombinant protein (human, UniProt O76036 22-255, limits assumed).
T3 construct: also called NKp46-His; soluble NKp46-His recombinant proteins; not shown: 6xHis tag
T3 sequence (O76036 22-255 Q82K limits assumed): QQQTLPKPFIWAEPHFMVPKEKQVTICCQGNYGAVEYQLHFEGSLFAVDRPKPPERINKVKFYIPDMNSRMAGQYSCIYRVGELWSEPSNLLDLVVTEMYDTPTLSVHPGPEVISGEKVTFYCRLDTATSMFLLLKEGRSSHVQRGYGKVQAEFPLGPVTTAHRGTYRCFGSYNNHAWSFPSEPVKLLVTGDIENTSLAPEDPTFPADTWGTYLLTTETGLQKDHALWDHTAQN
Put plainly: SPR Biacore T100, antibody captured on Protein-G chip, soluble NKp46-His 12.5-200 nM, single cycle kinetics, 1:1 model, monovalent. The protocol: SPR measurements were performed on a Biacore T100 apparatus (Biacore GE Healthcare) at 25° C. In all Biacore experiments HBS-EP+ (Biacore GE Healthcare) and NaOH 10 mM NaCl 500 mM served as running buffer and regeneration buffer respectively. Sensorgrams were analyzed with Biacore T100 Evaluation software. Protein-G was purchase from GE Healthcare and Anti-His antibody from QIAGEN. Human 6×His tagged NKp46 recombinant proteins (NKp46-His) were cloned, produced and purified at Innate Pharma.
Affinity study has been performed using the Protein-G chip. Monovalent affinity study was done following the Single Cycle Kinetic (SCK) protocol. Five serial dilutions of soluble NKp46-His recombinant proteins ranging from 12.5 to 200 nM were injected over the captured Anti-NKp46 anti bodies (without regeneration) and allowed to dissociate for 10 min before regeneration. For each antibody, the entire sensorgram was fitted using the 1:1 SCK binding model.
A general note: In SPR one partner is held on a chip, and binding of the other changes the refractive index at the surface.

These results are taken from patent US20190367609A1 (INNATE PHARMA, published 2019).

T1 sequence (O76036 22-304 Q82K limits assumed): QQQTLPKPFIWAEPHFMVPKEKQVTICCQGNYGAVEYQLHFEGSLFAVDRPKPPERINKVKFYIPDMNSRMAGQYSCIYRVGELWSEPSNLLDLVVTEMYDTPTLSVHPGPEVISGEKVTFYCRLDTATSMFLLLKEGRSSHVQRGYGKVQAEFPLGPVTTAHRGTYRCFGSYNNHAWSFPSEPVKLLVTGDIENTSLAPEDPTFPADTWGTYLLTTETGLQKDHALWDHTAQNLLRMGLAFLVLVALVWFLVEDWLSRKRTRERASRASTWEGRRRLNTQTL

B1: 17E1 antibody-drug conjugate with PBD dimer (DAR=2) (antibody, V domains shown)
VH: QVQLQQPGSVLVRPGASVKLSCKASGYTFTSSWMHWAKQRPGQGLEWIGHIHPNSGISNYNEKFKGKATLTVDTSSSTAYVDLSSLTSEDSAVYYCSRGGRFDDWGAGTTVTVSS
VL: DIQMTQSPSSLSASLGERVSLTCRASQDIGSSLNWLQQEPDGTIKRLIYATSRLDSGVPKRFSGSRSGSDYSLTISSLESEDFVDYYCLQYASSPWTFGGGTKLEIK
modifications: PBD dimer through amino-PEG-azide / DBCO-val-ala linker on Q295 (Kabat EU numbering) of each heavy chain; deglycosylated with PNGaseF
Turning to B1, in test [1], the “IC50 for cytotoxicity towards SNK6 cells (Cell Titer Glo, 72 h)” value (“IC50 for cytotoxicity towards SNK6 cells” for short) turned out to be 0.01 ng/mL.

B2: 17E1 (antibody, V domains shown)
VH: QVQLQQPGSVLVRPGASVKLSCKASGYTFTSSWMHWAKQRPGQGLEWIGHIHPNSGISNYNEKFKGKATLTVDTSSSTAYVDLSSLTSEDSAVYYCSRGGRFDDWGAGTTVTVSS
VL: DIQMTQSPSSLSASLGERVSLTCRASQDIGSSLNWLQQEPDGTIKRLIYATSRLDSGVPKRFSGSRSGSDYSLTISSLESEDFVDYYCLQYASSPWTFGGGTKLEIK
notes: also called CHG1-M-H46 17E1
The term EC50 denotes the concentration that produces a half-maximal response. A low value points to an effect from little substance. B2: the EC50 in test [2] turned out to be 55 ng/mL; in test [3], 59 ng/mL.

B3: 8B6B (antibody, V domains shown)
VH: QVQLQQPGSELVRPGASVKLSCKASGYTFTSYWMHWVKQRPGQGLEWIGTIYPGSDITNYDEKFKNKATLTVDTSSSTAYMQLSSLTSEDSAVYYCTRDGRFANWGQGTLVTVSA
VL: EIQMTQSPSSLSASLGERVSLTCRASQDIGSSLNWLQQEPDGTIKRLIYATSSLDSGVPKRFSGSRSGSDYSLTISSLESEDFVDYYCLQYASSPYTFGGGTKLEIK
notes: Same heavy chain variable domain as 8B6A with a different light chain; also called CHG1-M-H46 8B6-B
By Kd is commonly meant the equilibrium constant for the complex coming apart. In general, koff refers to the first-order rate constant of dissociation. Usually kon stands for the rate constant with which the complex forms. On to B3, for which, in test [4], the Kd is 4.07 nM, the koff came to 0.0011 s⁻¹ and the kon was 271000 M⁻¹ s⁻¹. Further, a half-maximal response in test [2] (EC50) required 76 ng/mL. For the same molecule, the EC50 in test [3] worked out at 28 ng/mL.

B4: 9H11A antibody-drug conjugate with PBD dimer (DAR=2) (antibody, V domains shown)
VH: QVQLQQPGAELVKPGASVKLSCKASGYTFTSYWMHWVKLRPGQGFEWIGEIIPSNGVTNYNEKFKRKATLTVDKSSSTAYMQLSSLTSEDSAVYYCTIRLRYALDYWGQGTSVTVSA
VL: DIQMTQTTSSLSASLGDRVTISCRASQDISNFLNWYQQKPDGTVKLLIYYTSRLHSGVPSRFSGSGSGTDYSLTISNLEQEDIATYFCQQGNTLPPTFGGGTKLEIK
modifications: PBD dimer through amino-PEG-azide / DBCO-val-ala linker on Q295 (Kabat EU numbering) of each heavy chain; deglycosylated with PNGaseF
On to B4, for which, in test [1], the “IC50 for cytotoxicity towards SNK6 cells” value stood at 0.02 ng/mL.

B5: 9H11A (antibody, V domains shown)
VH: QVQLQQPGAELVKPGASVKLSCKASGYTFTSYWMHWVKLRPGQGFEWIGEIIPSNGVTNYNEKFKRKATLTVDKSSSTAYMQLSSLTSEDSAVYYCTIRLRYALDYWGQGTSVTVSA
VL: DIQMTQTTSSLSASLGDRVTISCRASQDISNFLNWYQQKPDGTVKLLIYYTSRLHSGVPSRFSGSGSGTDYSLTISNLEQEDIATYFCQQGNTLPPTFGGGTKLEIK
notes: also called CHG1-M-H46 9H11-A
Turning to B5, in test [4], the dissociation constant (Kd) was found to be 0.728 nM, the koff came out at 0.000199 s⁻¹ and the on-rate (kon) was determined as 273000 M⁻¹ s⁻¹. The EC50 in test [2] was 51 ng/mL. The EC50 in test [3] was 26 ng/mL.

B6: 9H11B (antibody, V domains shown)
VH: QVQLQQPGAELVKPGASVKLSCKASGYTFTSYWMHWVKLRPGQGFEWIGEIIPSNGVTNYNEKFKRKATLTVDKSSSTAYMQLSSLTSEDSAVYYCTIRLRYALDYWGQGTSVTVSA
VL: DIVMTQSQKFMSTSVGDRVSVTCKASQNVGTNVAWYQQKPGQSPKALIYSTSFRYSGVPDRFTGSGSGTDFTLTISNVQSEDLAEYFCQQYNSYPFTFGSGTKLEIK
notes: Same heavy chain variable domain as 9H11A with a different light chain; also called CHG1-M-H46 9H11-B
With B6, in test [4], the Kd was determined as 0.892 nM, the koff was 0.000253 s⁻¹ and the association rate constant (kon) came out at 283000 M⁻¹ s⁻¹. Moreover, in test [2], the 50% effective concentration (EC50) stood at 124 ng/mL. Also, in test [3], the response was half-maximal at 25 ng/mL (EC50).

B7: 9H11B antibody-drug conjugate with PBD dimer (DAR=2) (antibody, V domains shown)
VH: QVQLQQPGAELVKPGASVKLSCKASGYTFTSYWMHWVKLRPGQGFEWIGEIIPSNGVTNYNEKFKRKATLTVDKSSSTAYMQLSSLTSEDSAVYYCTIRLRYALDYWGQGTSVTVSA
VL: DIVMTQSQKFMSTSVGDRVSVTCKASQNVGTNVAWYQQKPGQSPKALIYSTSFRYSGVPDRFTGSGSGTDFTLTISNVQSEDLAEYFCQQYNSYPFTFGSGTKLEIK
modifications: PBD dimer through amino-PEG-azide / DBCO-val-ala linker on Q295 (Kabat EU numbering) of each heavy chain; deglycosylated with PNGaseF
Regarding B7, in test [1], the “IC50 for cytotoxicity towards SNK6 cells” value came out at 0.01 ng/mL.

B8: 8B6A (antibody, V domains shown)
VH: QVQLQQPGSELVRPGASVKLSCKASGYTFTSYWMHWVKQRPGQGLEWIGTIYPGSDITNYDEKFKNKATLTVDTSSSTAYMQLSSLTSEDSAVYYCTRDGRFANWGQGTLVTVSA
VL: EIVLTQSPAITAASLGQKVTITCSASSSVSYMHWYQQKSGTSPKPWIYEISKLASGVPARFSGSGSGTSYSLTISSMEAEDAAIYYCQQWNLPLTFGAGTKLELK
notes: Mouse variable domains; light chain is kappa (VK); also called CHG1-M-H46 8B6-A
With B8, in test [4], the Kd is 4.08 nM, the koff was found to be 0.00109 s⁻¹ and the on-rate constant (kon) came out at 267000 M⁻¹ s⁻¹. In test [2], this molecule registered a 50% effective concentration (EC50) of 148 ng/mL. This molecule returned a concentration for a half-maximal effect (EC50) in test [3] of 29 ng/mL.
